# Data from patent US5889153A, “Protein or polypeptide, method for producing the same and intermediate compound therefor” (Hisamitsu Pharmaceutical Co., Inc., priority 1994, dated 1999).
# Columns and labels:
# [1] = in-vivo behaviors of modified SOD: SOD concentration in blood after intravenous administration; set-up: species or system rat; conditions: about 5,000 U intravenously; for in-vivo behaviors (SOD concentration in blood): urethane-anesthetized rat or rat with ligated renal artery
# From the text: About 5,000 U p-nitrophenyl formate-activated polyethyleneglycol-monocholesterolether (compound C)-modified or non-modified SOD were intravenously administered to an urethane-anesthetized rat or a rat of which only the renal artery was ligated after urethane anesthesia. Then, at prescribed intervals of time, venous blood was sampled to measure the SOD concentration in blood at each time point.
# acute gastric ulcer = test: pharmacological effect of modified SOD: water immersion stress ulcerative model; type: in vivo; conditions: 10,000 U, rat, compared with non-modified SOD
# Protocol: To a rat, 10,000 U p-nitrophenyl formate-activated polyethyleneglycol-monocholesterolether (compound C)-modified or non-modified SOD were administered. Then, an acute gastric ulcer was caused in accordance with the method for preparing a water immersion stress ulcerative model, and the effect inhibiting generation of ulcer at this point was investigated.
# blood glucose = test: pharmacological effect of modified insulin: blood glucose value after intravenous administration; type: in vivo; conditions: about 0.5 U intravenously, normal rat
# From the text: Then, at prescribed intervals of time, venous blood was sampled to measure the insulin concentration in blood and blood glucose value at each time point.
# [2] = water-solubility of reactive PEG derivative; type: physicochemical; conditions: 0.025 mM Na2B4O7.10H2O, pH 9.2, given as the reason for insufficient modification
# Protocol: After dissolving bovine-derived insulin (6.0 mg) in 0.025 mM Na2 B4 O7.10H2 O (pH: 9.2) in an amount of 200 ml, p-nitrophenyl formate-activated polyethyleneglycolmono-cholesterolether (compound A), N-succinimide-activated polyethyleneglycol-monocholesterolether (compound B), p-nitrophenyl formate-activated polyethyleneglycol-mono-cholesterolether (compound C), cyanulchloride-activated polyethyleneglycol-monocholesterolether (compound D), double-type cyanulchloride-activated polyethyleneglycol-monocholesterolether (compound E), and p-nitrophenyl formate-activated polyethyleneglycol-monocholosterolether (compound F) obtained in Example 1 were respectively added in an amount of 2.0 nmol, and the mixtures were stirred at the room temperature for five hours. The resultant mixtures were purified through gel filtration by the use of Sephadex G-75 (made by Pharmacia Company). The target fraction was desalted and concentrated through ultrafiltration (made by Pharmacia Company), thereby obtaining the target aqueous solution (1.8 mg/ml). In the case of p-nitrophenyl formate-activated polyethylene-glycol-monocholesterolether (compoundA), the target modification was insufficient. […] In the case of p-nitrophenyl formate-activated polyethyleneglycol-monocholesterolether (compound F) also, the chemical modification was not sufficient. This is considered to be due to stereo-hindrance.
substance,measurement,setting,value
"modified SOD: bovine-derived Cu, Zn-SOD modified with p-nitrophenyl formate-activated polyethyleneglycol-monocholesterolether (compound C), Example 3",glomerular filtration,[1]; rat,exempt from glomerular filtration
same,half-life in blood,[1]; rat,extended
same,in-vivo behaviors (SOD concentration in blood),[1],largely improved
same,effect inhibiting generation of ulcer,acute gastric ulcer,production of an ulcer is inhibited
insulin [non-modified insulin],pharmacological effect (blood glucose value),blood glucose,identical pharmacological effects
"non-modified SOD: bovine-derived Cu, Zn-SOD (Superoxide Dismutase), not modified",in-vivo behaviors (SOD concentration in blood),[1],clearly improved
p-nitrophenyl formate-activated polyethylene-glycolmonocholesterolether [compound A],water-solubility,[2],low water-solubility
